The results in this text go back to EP4763865A1.

The EC50 is the concentration needed to bring the measured effect to its halfway point. Lower therefore signals higher potency in that assay.

Like-named read-outs stand apart in the source and are kept apart here.

Assay [1] has as its target human c-MET on Hs746T human gastric cancer cells (human) (UniProt P08581). The assay is described as follows: cell-based or functional assay.
Assay [2] has the same target. Nature of the assay: flow cytometry on Hs746T cells, PE secondary antibody, 4-parameter fit.
Assay [3] deals with Human c-MET, His Tag (Sino Biological, Cat. No. 10692-H08H) (human) (UniProt P08581). Nature of the assay: ELISA, coated human c-MET His Tag, 4-parameter fit. In general terms: ELISA stands for enzyme-linked immunosorbent assay.
Assay [4] concerns the target human c-MET on Hs746T human gastric cancer cells (human) (UniProt P08581). The assay is described as follows: cell-based or functional assay. The source holds these as a separate data set.
Assay [5] shares this target. Nature of the assay: flow cytometry on Hs746T cells, 4-parameter fit. In general terms: A flow cytometer gives signals particle by particle.
The target of assay [6] is human c-MET antigen (human) (UniProt P08581). The assay is described as follows: ELISA OD450 of clone supernatant divided by PBS blank.
For assay [7] the target is unchanged. Nature of the assay: ELISA, E. coli lysate supernatant of clone on human c-MET antigen.

In assay [1], MHB07-PC (Telisotuzumab) (antibody) had a Fab-ZAP endocytosis-mediated cell killing, Bottom (killing rate %) of 49.7%; a Fab-ZAP endocytosis-mediated cell killing, EC50 of 19.9 pM; a Fab-ZAP endocytosis-mediated cell killing, Top (killing rate %) of 83.2%. Besides, in assay [2], the Bottom was found to be 18000 MFI, the EC50 came out at 0.31 µg/mL and the Top is 647000 MFI. In assay [3], this molecule gave a Bottom of 0.0407 OD450, an EC50 of 0.00925 µg/mL and a Top of 2.02 OD450. For the same molecule, in assay [4], the Fab-ZAP endocytosis-mediated cell killing, Bottom (killing rate %) was found to be 15.4%; the Fab-ZAP endocytosis-mediated cell killing, EC50 is 12.8 pM; the Fab-ZAP endocytosis-mediated cell killing, Top (killing rate %) was 98.3%. In assay [5], this molecule yielded a Bottom of 610 MFI, a 50% effective concentration (EC50) of 0.788 µg/mL and a Top of 8340 MFI.

As for Isotype (antibody), in assay [3], the Bottom came to 0.0582 OD450, the concentration giving a half-maximal response (EC50) stood at 4.09 µg/mL and the Top was determined as 0.0795 OD450. In assay [5], the Bottom was -124 MFI, the EC50 was found to be 9.74 µg/mL and the Top is 722 MFI.

B1: MH172-HGF R-7-2-92 (VHH)
VHH: QLQLVESGGGLVQAGGSLRLSCAASGRITNTYVMGWFRQAPGKERELQAAITWTVGSTYYVDSVKGRFTISRDNAKNTLYLQMNSLKPEDTAVYYCAASRFSAWPPRGTLGEWNSWGQGTQVTVSS
Take B1: in assay [6], the Unique seq/PBS (fold over PBS) is 42.3. For the same molecule, the OD450 in assay [7] stood at 3.26 OD450.
